Tests used:
ACOX-1.1 = target: T1, ACOX-1.1 (Caenorhabditis elegans, UniProt O62140); experiment: LC-MS assay with MAOC-1, DHS-28, DAF-22; peroxidase-coupled H2O2 assay; assay type: biochemical; settings: LC-MS: 40 μM substrate, 20 μM FAD, 20 μM NAD+, 200 μM CoA, pH 7.5, 30 °C; coupled: 24 µM substrate, ~23 °C
T1 construct: pET-16b-acox-1.1a, expressed in E. coli and purified, homodimer
T1 sequence (O62140 1-674): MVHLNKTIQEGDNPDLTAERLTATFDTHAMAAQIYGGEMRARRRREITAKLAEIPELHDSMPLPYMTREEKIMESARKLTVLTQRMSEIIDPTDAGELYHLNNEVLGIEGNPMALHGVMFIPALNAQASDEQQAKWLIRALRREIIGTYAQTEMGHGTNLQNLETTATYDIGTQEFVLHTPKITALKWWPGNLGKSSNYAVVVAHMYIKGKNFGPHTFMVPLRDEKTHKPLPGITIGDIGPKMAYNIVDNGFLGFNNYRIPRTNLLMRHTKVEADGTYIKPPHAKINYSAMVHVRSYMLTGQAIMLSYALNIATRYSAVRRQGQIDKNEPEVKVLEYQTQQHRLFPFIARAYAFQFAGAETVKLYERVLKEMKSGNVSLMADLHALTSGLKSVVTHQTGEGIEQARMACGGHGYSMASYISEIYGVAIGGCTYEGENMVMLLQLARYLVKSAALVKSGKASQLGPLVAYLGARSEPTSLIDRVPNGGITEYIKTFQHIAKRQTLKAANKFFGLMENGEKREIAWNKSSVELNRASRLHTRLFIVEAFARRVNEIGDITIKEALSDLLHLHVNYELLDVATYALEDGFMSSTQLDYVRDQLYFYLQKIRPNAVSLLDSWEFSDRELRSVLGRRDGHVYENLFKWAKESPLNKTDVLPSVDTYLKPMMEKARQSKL

purified protein = substrate: C[C@H](CCCCCCC(=O)O)O[C@@H]1O[C@@H](C)[C@H](OC(=O)c2c[nH]c3ccccc23)C[C@H]1O; experiment: purified protein; assay type: biochemical, Caenorhabditis elegans; settings: 7.5 mM ATP, 1 mM CoA, 10 mM MgCl2, 1.6 mM Triton X-100, pH 7.4, 22 °C

C[C@H](CCCCCCC(=O)SCCNC(=O)CCNC(=O)[C@H](O)C(C)(C)COP(=O)(O)OP(=O)(O)OC[C@H]1O[C@@H](n2cnc3c(N)ncnc32)[C@H](O)[C@@H]1OP(=O)(O)O)O[C@@H]1O[C@@H](C)[C@H](OC(=O)c2c[nH]c3ccccc23)C[C@H]1O [IC-asc-C9-CoA]
LC-MS assay with MAOC-1, DHS-28, DAF-22; peroxidase-coupled H2O2 assay (ACOX-1.1): It also showed activity towards IC-asc-C9-CoA, but less than towards IC-asc-C7-CoA

B1: ACS-7 (Caenorhabditis elegans) (protein)
chain: MIFHGEQLENHDKPVHEVLLERFKVHQEKDPDNVAFVTAENEDDSLGFQQLGKKVLQISEWFVENGYKKGDVFLLASYNNWRCFAAALGAWRAGLIVSAAASQFTSFEMNYQIEDSQSQVILVDKHTLPVVQEACKNLKFVKQIISISANPPSPVIKFDVLTSRLVRNLKMPLIDPKNDIVFLPYSSGTTGKPKGVMISHLNFSMMLESSLRFFDANAKAIGLPPDFVLPYDLHFLPMYHAMGMFRTLLTSYRGTTQIMFTKFDMELMLKNIEKYSIMVLSLVPAIAVRMLNSPLLQKYDVSSLVSVTVGSAPFPESASKKLKQLLPNVNIVQGYGMTELTFATHLQSPGSPDGSVGRLVPGTSMKVKKEDGTLCGPHEIGELWIKGPQMMKGYWKKEQQTNELLDEHGFMRTGDIVYFDKNGETFICDRIKELIKVNAKQVAPAELESVILEHDDVADVCVFGVDDASSGERPVACVVSKRGRDMETSKAIMKHINQKLARYKHIKEIEFVSEIMRTGTGKLLRRAMKKAFLDAKKAKL
notes: full-length from cDNA library, pET-22b (NdeI/XhoI), His-tagged, E. coli BL21(DE3), Ni-NTA and Superdex 200
Km (purified protein): 14.5 ± 3.0 µM
kcat (purified protein): 0.53 ± 0.08 s⁻¹

Reference: PMC5986272, “Biosynthetic tailoring of existing ascaroside pheromones alters their biological function in C. elegans” (eLife, 2018)
